In PMC8218332 (Cell, 2021):

B1: mAb 222 (antibody, V domains shown)
VH: EVQLVESGGGLIQPGGSLRLSCAASGLTVSSNYMSWVRQAPGKGLEWVSVIYSGGSTFYADSVKGRFTISRDNSKNTLYLQMNSLGAEDTAVYYCARGEGSPGNWFDPWGQGTLVTVSS
VL: DVVMTQSPGTLSLSPGERATLSCRASQSVPSSYLAWYQQKPGQAPRLLIYGASTRATGIPDRFSGSGSGTDFTLTISRLEPEDFAVYYCQHYDTSPRFGGGTKVDIK
notes: copies: 2 + 2
B2: mAb 278 (antibody, V domains shown)
VH: QVQLVQSGAEVKKPGASVKVSCKASGYIFIRYGISWVRQAPGQGLEWMGWISANNGYTNYAQKLQGRVTMTTDTSTSTAYMELRSLRSDDTAVYYCARDGGILTGYLDYFDHWGQGTLVTVSS
VL: DIQMTQSPSSLSASVGDRLTITCRASQSIASYLNWYQQKPGKAPKLLIYAASSLQSGVPSRFSGSGSGTDFTLTISSLQPEDFATYHCQQSYSTLGITFGPGTKVDIK
notes: copies: 2 + 2
B3: mAb 88 (antibody, V domains shown)
VH: QLQLQESGPGLVKPSQTLSLTCTVSGGSISSGSYNWTWIRQPAGKGLEWIGRIYNSGSTNYNPSLKSRVTISVDTSKNQLSLKVRSVTAADTAVYYCARHCSGGTCYPKYYYGMDVWGQGTTVTVSS
VL: QSALTQPPSVSEAPRQRVTISCSGSSSNIGNNAVNWYQQFPGKAPKLLIYYDDLLPSGVSDRFSGSKSGTSASLAISGVQSEDEADYYCAAWDDSLNVVVFGGGTKLTVL
notes: copies: 2 + 2
B4: mAb 316 (antibody, V domains shown)
VH: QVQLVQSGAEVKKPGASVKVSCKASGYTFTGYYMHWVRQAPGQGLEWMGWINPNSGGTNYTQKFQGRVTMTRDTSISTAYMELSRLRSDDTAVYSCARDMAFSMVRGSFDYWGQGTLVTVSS
VL: QAVLTQPPSASGSPGQSVTISCTGTSSDVGGYNYVSWYQQHPGKAPKLMIYEVSKRPSGVPDRFSGSKSGNTASLTVSGLQAEDEADYYCSSYAGSNHWVFGGGTKLTVL
notes: copies: 2 + 2
B5: REGN10987 (antibody, V domains shown)
VH: QVQLVESGGGVVQPGRSLRLSCAASGFTFSNYAMYWVRQAPGKGLEWVAVISYDGSNKYYADSVKGRFTISRDNSKNTLYLQMNSLRTEDTAVYYCASGSDYGDYLLVYWGQGTLVTVSS
VL: QSALTQPASVSGSPGQSITISCTGTSSDVGGYNYVSWYQQHPGKAPKLMIYDVSKRPSGVSNRFSGSKSGNTASLTISGLQSEDEADYYCNSLTSISTWVFGGGTKLTVL
notes: source: provided by AstraZeneca; copies: 2 + 2

Target: T1, His-tagged SARS-CoV-2 RBD T478K (SARS-CoV-2, Wuhan-Hu-1 RBD with T478K, T478K)
T1 construct: not shown: His6, N-terminal, kept
Test: BLI
Conditions: both partners purified

Question: For B1, which Kd is on record?
Answer: 0.2 nM

Question: B2 was tested. Which Kd did it give?
Answer: 1.5 nM

Question: Which Kd does the source give for B3 here?
Answer: 2.4 nM

Question: With B4 as the binder, how does the Kd read?
Answer: 0.69 nM

Question: Which Kd does the source give for B5 here?
Answer: 0.35 nM
